Target: human α-thrombin (human) (UniProt P00734)
Experiment: enzyme inhibition assay (chromogenic thrombin amidolytic activity); 0.14 nM human α-thrombin, 100 μM N-(p-Tosyl)-GPR-pNA, varying concentrations of inhibitor; 50 mM Tris-HCl, 50 mM NaCl, pH 8; absorption at 405 nm; Ki from a Morrison equation

Row | Substance | Ki [nM]
1 | chimadanin sulfated at both Tyr28 and Tyr31 (natural protein) | 0.1
2 | chimadanin with sTyr at Tyr28 (natural protein) | 0.6
3 | chimadanin with sTyr at Tyr31 (natural protein) | 1.5
4 | madanin-1 sulfated at both Tyr32 and Tyr35 (natural protein) | 0.5
5 | madanin-1 with sTyr at Tyr32 (natural protein) | 1.3
6 | madanin-1 with sTyr at Tyr35 (natural protein) | 6.1
7 | wildtype chimadanin (natural protein) | 12.9
8 | wildtype madanin-1 (natural protein) | 16

— publication PMC9481576
